The record followed here is the nanobody polyreactivity screen of Harvey et al. (2022).

A short description of the series: yeast display, Sf9 membrane polyspecificity reagent, FACS + sequencing; frameworks hold sequencing errors. The procedure, abridged: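 A nanobody's polyreactivity label depends on the gate it was sorted from. Yeast display cells were stained with 10% biotinylated, detergent-solubilized Sf9 membrane reagent for 1 hour at 4 °C, enriched on streptavidin microbeads and sorted by FACS. The low and high (top ~1%) gates were set on anti-HA fluorescence for expression and streptavidin fluorescence for reagent binding.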
For the sequence “QVQLVESGGGLVPAGGSLRLSCAASGRIFGWYAMGWYRQAPGKEREFVAAITVTGGSTYYADSVKGRFTISRDNAKNTVYLQMNSLKPEDTAVYYCAADRWYTRTGFDYWGQGTQVTVSS”, the “polyreactivity (PSR sort gate)” value is given as “low polyreactivity”.

For the sequence “QVQLVESGGGLVQAGGSLRLSCAASGRIFSRNAMGWYRPAPGKERELVAAISWRGGRTYYADSVKGRFTISRDNAKNTVYLQMNSLKPEDTAVYYCNAVYRLSHYDLDYWGQGTQVTVSS”, the “polyreactivity (PSR sort gate)” value was “high polyreactivity”.

As for “QVQLVESGGGLVQAGGSLRLRSAATGRTYRLYAMGWYRQAPGKERELVAAITRGGRTNYADSVKGRFTISRDNAKNTVYLEMNSLKPEDTAVYYCAARYRLPIPGTQYEYWGQGTQVTVSS”, the “polyreactivity (PSR sort gate)” value is “low polyreactivity”.

As to “QVQLVESGGGLVQAGGSLRLSCAASGSIFTNNAMGWYRQAPRKERELVAAISWSGGSTYYADSVKGRFTISRDNAKITVYLQMISLKPEDTAVSYCAARYLYYGGRPGYDSWGQGTQVTVSS”, the “polyreactivity (PSR sort gate)” value is listed as “high polyreactivity”.

As for “QVQLVESGGGLVQAGGSLRLSCAASGRIFFKYAMGWYRQAPGKERELVAAISKTGGRTYYADSVKGRFTISRDNAKNTVYLQMNSLKPEDTAVYYCRGYTSFGYDYWGQGTQVTVSS”, the “polyreactivity (PSR sort gate)” value is “high polyreactivity”.

As for “QVQLVESGGGLVQAGGSLRLSCAASGFIFGAYSMGWYRQAPGKERELVADITQNSGSTYYADSVKGRFTISRDNAKNTVYLQMNSLKPEDTAVYYCNAPPGTFQWQGHSDYWGQGTQVTVSS”, the “polyreactivity (PSR sort gate)” value was “low polyreactivity”.

In the case of “QVQLVESGGGLVQAGGSLRLSCAASGRIFYPNDLGWYRQAPGKERELVAAITRDGSTNYADSVKGRFTISRDNAKNTVYLQMNSLKPEDTAVYYCAADISDWYIIRRMNYWGQGTQVTVSS”, the “polyreactivity (PSR sort gate)” value is “low polyreactivity”.

“QVQIVESGGGLVQAGGSLRLSCAASGIIFVRYDIGWYRPAPGKERELVAAISWSGGRTYYADSVKGRFTISRDNAKNTVYLQMNSLKPEDTEVYYCNAKGSYWWYQKDYWGQGTQVTVSS”: the “polyreactivity (PSR sort gate)” value is listed as “high polyreactivity”.

For the sequence “QVQLVESGGGLVQAGGSLRLSCAASGRIFVPNAMGWYRQAPGKERELVAAITRSGSTYYADSVKGRFTISRDNAKNTVYLQMNSLKPEDTAVYYCNAASRRFPGKVWDYHYWGQGTQVTVSS”, the “polyreactivity (PSR sort gate)” value is reported as “low polyreactivity”.

As for “QVQLLESGGALVQAVGSLRLSCMASGSILGDRMSWYRQAPGKEHELVATIYDGGITYYADSMKGRFTISRDNAIHTVYLQMNSLRPEDTAVYYCGASLEGYRYNVYCGQGTQVTVSS”, the “polyreactivity (PSR sort gate)” value is recorded as “low polyreactivity”.

On to “QVQLVESGGGLVQAGGSLRLSCAASGFIFVKNAMGWYRQAPGKERELVAVISTRGGRTYYADSVKGRFTISRDNAKNTVYLQMNSMKPEDTAVYYCAAGDQYKTRRNGYGYWGQGTQVTVSS”, for which the “polyreactivity (PSR sort gate)” value is on record as “high polyreactivity”.

As for “QVHLVESGGGLVQAGGSLRLSCAASGNTFYWYVMGWYRQAPGKERDLVARITSSGGSTNYADSVKGRFTISRDNAKNTVYLQMISLKPEDTAVYYCAADDIYLYGGGTDYYYWGQGTQVTVSS”, the “polyreactivity (PSR sort gate)” value is “low polyreactivity”.

With “QVQLVESGGGLVQAGGSLRLSCAASGSTFSIYAMGWYRQAPGKERELVAAISFSDASTYYADSVKGRFTISRDNAKNTVYLQMNSLKPEDTAVYYCAAVVGAFKRRFYYWGQGTQVTVSS”, the “polyreactivity (PSR sort gate)” value is given as “high polyreactivity”.

For “QVQLVESGGGLVQAGGSLRLTCPASGGIFYDYSMVWYRQAPGKERQLVAAITRSGDSTYYADSVKGRFTISRDNAKNTVYLQMNSLKPEDTAVYYCAADIWSSDYEEFYYWVQGTQVTVSS”, the “polyreactivity (PSR sort gate)” value was “low polyreactivity”.

For the sequence “QVQLVESGGGLVQAGGSLRLSCAASGFIFYRYAMGWYRQAPGKERELVAAINWSGGGTYYADSVKGRFTISRDNAKNTVYLQMNSLKPEDTAVYYCAAGRSFRGSYWYEYWGQGTQVTVSS”, the “polyreactivity (PSR sort gate)” value is recorded as “high polyreactivity”.

With “QVQLVESGGGLVQAGGSLRLSCAASGFTFRSNVMGWSRQAPGKERELVAGITQRGGRTYYADSEKGRFTISRDNAKNTVYLQMNSLKPEDTAVYYCAADRSEYDYWGQGTQVTVSS”, the “polyreactivity (PSR sort gate)” value is given as “high polyreactivity”.

“QVQLVESGGGLVQAGGSLRVSCAASGSNFPRYAMGWYRQAPGKERELVAAISGRGGSTYYADSVKGRFTISRDNAKNTVYLQMNSLKPEDTAVYYCNAVGHTSIRRALDILDYWGQGTQVTVSS”: the “polyreactivity (PSR sort gate)” value is on record as “high polyreactivity”.

On to “QVQLVESGGGLVQAGGSLRLSCAASGRIFRYYAMGWYRQEPGKERELVAVITRGTSTKYADSVKGRFTISRDNAKITVYLQMNSLKPEDTAVYYCAADYWYANVGFDYWGQGTQVTVSS”, for which the “polyreactivity (PSR sort gate)” value was “high polyreactivity”.

For “QVQLVESGGGLVQAGGSLRLSCAASGRTLTQYAMGWYRQAPGTERELVAAINTSGDSTYYADSVKGRFTISRDNAKNTVYLQMNSLKPEDTAVYYCAADGFWSQLYHLYNGYDYWGQGTQVTVSS”, the “polyreactivity (PSR sort gate)” value was “low polyreactivity”.

Consider “QVQLVESGGGLVQAGGSLRLSCAASGLIFGRYAMGWYRQAPGKERELVAAISSSGVRTYYADSVKGRFTISRDNAKNTVYLQMNSLNPEDTAVYYCAAYDWYISEDYRYYYFWEYDYWGQGTQVTVSS”, for which the “polyreactivity (PSR sort gate)” value is reported as “high polyreactivity”.

Consider “QVQLVESGGGLVQAGGSLRLSCAASGITFPYYAMGWYRQAPGKERELVAAITIRSGRTYYADSVKGRFTISRDNAMNTVYLQMNSLKPEDTAVYYCAARLSNTYGYWGQGTQVTVSS”, for which the “polyreactivity (PSR sort gate)” value is on record as “high polyreactivity”.

In the case of “QVQLVESGGGLVQAGGSLRLSCAASGYTFASYDMGWYRQAPGKERELVAAIDWSGGSTYYADSVKGRFTISRDNAKNTVYLQMNSLKPEDTAVYYCAAERPWTYGSDGMDYWGQGTQVTVSS”, the “polyreactivity (PSR sort gate)” value was “low polyreactivity”.

As to “QVQLVQSGGGLVQAGGSLRLSCAASGTTFRIYAMGWYRQAPGKEREFVAAISDRGGRTYYADSVKGRFTISRDNAKNTVYLQMNSLKPEDTAVYYCAAVKLLSSAPGDDGKMNYWGQGTQVTVSS”, the “polyreactivity (PSR sort gate)” value is recorded as “low polyreactivity”.

Turning to “QVQLVESGGGLVQAGGSLRLSCAASGSIFDRNAMGWYRQAPGKERELVAAITSGGSTYYADSVKGRFTISRDNAKNTVYLQMNSLKAEDTAVYYCNADADPPVPLYYWGQGTQVTVSS”, the “polyreactivity (PSR sort gate)” value is reported as “low polyreactivity”.

“QVQLVESGGGLVQAGGSLRLSCAASGLTVNRYALGWYRQAPGKERELVASIRWSGGSTYYADSVKGRFTISRDNAKNTVYLQMNSLKPEDTAVYYCAKSIASAAYDSWGQGTQVTVSS”: the “polyreactivity (PSR sort gate)” value is on record as “low polyreactivity”.

Turning to “QDQLVESGGGLVQAGGSLRLSCDASGSIFSPYAMGWYRQAPGKEREFVAAITYSGGRTYYADSVKGRFTISRDNPKNTVYFQMNSLKPEDTAVYYCAATYSSYDHYWFVYWGQATQVTVSS”, the “polyreactivity (PSR sort gate)” value is on record as “low polyreactivity”.

Turning to “QVQLVESGGVIVQAGGSLRLSCAATGSNFWSYAMGSSRPAPGKERELVASITRSGGSTYYADSVKGRFTISRDNAKNTVYSQMNSLKPEDTAVYYCNARRTTRWGSSKYEYDYWGQGTQVTVSS”, the “polyreactivity (PSR sort gate)” value was “high polyreactivity”.

Turning to “QVQLVESGGGLVQAGGSLRLSCAASGSIFSVYVMGWYRQAPGKERELVAAISWSDSDTYYADSVKGRFTISRDNAKNTVYLQMNSLKPEDTAVYYCAAETFDYADYIANGSGEYDYWGQGTQGTVSS”, the “polyreactivity (PSR sort gate)” value is recorded as “high polyreactivity”.

For “QVQLVESGGGLVQAGGSLRLSCAASGSILGINVMGWYRQAPGKERELVAAISWRVGRTYYADSVKGRFTISRDNAKKTDDLQMNSLKPEDTAVYYCNVDRWGNIPVGDYDYWGQGTEVTVSS”, the “polyreactivity (PSR sort gate)” value is on record as “high polyreactivity”.

For “QVQLVESGGGLVQAGGSLRLSCAASGFIFPYYAMGWYRQAPGKERELVAAISARGGSTYYADSVKGRFTISRDNAKNTFYLQMNRLKPEDTAVYYCAAPYPRWTGKDYDYWGQGTQVTVSS”, the “polyreactivity (PSR sort gate)” value is listed as “high polyreactivity”.
